Test results from US20140329228A1 (Ushio Denki Kabushiki Kaisha, priority 2011, published 2014).

Tests used:
Type in all cases: binding
[1] = Fluorescence enhancement of fluoro-labeled Fab complex / scFv with ketamine; details: antigen Ketamine 100 μg/mL versus absence of antigen
[2] = Fluorescence enhancement of fluoro-labeled Fab complex with amphetamine; details: antigen Amphetamine 100 μg/mL versus absence of antigen
[3] = Fluorescence enhancement of fluoro-labeled Fab complex / scFv with methamphetamine; details: antigen Methamphetamine 100 μg/mL versus absence of antigen
[4] = Fluorescence enhancement of fluoro-labeled Fab complex / scFv with cocaine; details: antigen Cocaine 100 μg/mL versus absence of antigen
[5] = Fluorescence enhancement of fluoro-labeled Fab complex with MDMA; details: antigen MDMA 100 μg/mL versus absence of antigen
[6] = Fluorescence enhancement of fluoro-labeled Fab complex / scFv with morphine; details: antigen Morphine 100 μg/mL versus absence of antigen
[7] = Fluorescence enhancement of fluoro-labeled Fab complex with MDA; details: antigen MDA 100 μg/mL versus absence of antigen

B1: Anti-Methamphetamine: same-color double-label Fab complex of anti-methamphetamine antibody; TAMRA-labeled VL (SEQ ID NO: 25) and VH (SEQ ID NO: 26) (antibody, V domains shown)
VH: QVQLQQSGPELVKPGASVKVSCKASGYPSTRFYIYWVKQSHGKSLEWIGNIDPYNGGTTYNQKFKGKATLTIDKSSTTAYVHLNSLTSEDSAVYYCAGFHYSGQLDTDVWGAGTKVTVSS
VL: DIVMTQSPAFMSASPGEKVTLTCSASSSVSSTFLYWYQQKPGSSPKLWIYSTSNLASGVPSRFSGSGSGTSYSLTINSMEAEDAASYFCHQWSNYPFTFGSGTKLEIKR
modifications: Fab; TAMRA labels; Meth-VH-26; Meth-VL-25
Fluorescence enhancement in the presence of 100 μg/mL antigen [1]: 1.0 | Fluorescence enhancement in the presence of 100 μg/mL antigen [2]: 6.8 | Fluorescence enhancement in the presence of 100 μg/mL antigen [3]: 7.2 | Fluorescence enhancement in the presence of 100 μg/mL antigen [4]: 1.0 | Fluorescence enhancement in the presence of 100 μg/mL antigen [5]: 7.2 | Fluorescence enhancement in the presence of 100 μg/mL antigen [6]: 0.9 | Fluorescence enhancement in the presence of 100 μg/mL antigen [7]: 5.6
